Data: the supplement of paper PMC12042874
± gives the uncertainty stated by the source.

Assay: amyloid nucleation score (Sup35N fusion, yeast selection) (log enrichment); library NNK3; higher = more nucleation; inactive = no reads after selection
Procedure, shortened: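 Random libraries were run with three technical output replicates. In each, psi-negative yeast expressing Sup35N fused to peptides of 20 random codons were induced 24 hours with 100 μM copper sulfate and grown 7 days at 30°C on medium lacking adenine and uracil, and input and output plasmid inserts were Illumina-sequenced. The nucleation score is the DiMSum log enrichment of output over input reads, centred on the mode score of non-aggregating sequences, and sequences under 100 input reads were excluded.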
In the case of VRFYVAYFILFSDATAMALK, the amyloid nucleation score is reported as “inactive”.
Work on GLRNHCPSFLLWASTARGTL yielded an amyloid nucleation score of -0.976 ± 2.5.
QNVWSSVDNRWSIVENCTMA showed an amyloid nucleation score of 0.464 ± 0.37.
Substance HLVMGWLTKPSSIFGLEDKR has an amyloid nucleation score of 1.13 ± 0.11.
For FKLVGCGCNVMTFVSYLVNQ, the amyloid nucleation score was 1.98 ± 0.083.
In the case of VIHMH, the amyloid nucleation score is reported as “inactive”.
In the case of SQVDIMGKPADAFVPWFDGS, the amyloid nucleation score is reported as “inactive”.
For MNYWHNYFSLYDHLLMSKCC, the amyloid nucleation score was “inactive”.
In the case of KRFVFPLLIR, the amyloid nucleation score is reported as “inactive”.
With AETQCSSYDLCDTPSLFDVR the amyloid nucleation score was “inactive”.
In the case of RKLTCTSGLA, the amyloid nucleation score is reported as “inactive”.
In the case of ELIMCCHEYSVLAMRLLA, the amyloid nucleation score is reported as “inactive”.
With SHGLVIVRTKRPSNGFENGW the amyloid nucleation score was “inactive”.
RSWLLSSEFVVVIFSNTEGM gave an amyloid nucleation score of 1.24 ± 0.16.
With WSDLRI the amyloid nucleation score was “inactive”.
Substance VVVCNRIVNSSEFRCSYTRK has an amyloid nucleation score of 1.73 ± 0.09.
With GRLALSTRQHLV the amyloid nucleation score was “inactive”.
For VCMVEDFCCLPFDMLLYWLT, the amyloid nucleation score was “inactive”.
For SQDGYDLHRSFRLLEVGSEL, the amyloid nucleation score was “inactive”.
With KWYIMCLVNILVEVIIFNYF the amyloid nucleation score was “inactive”.
In the case of SFSSRRHYNLLPFRWFFRRN, the amyloid nucleation score is reported as “inactive”.
In the case of CPCGNVGVFLGLTRTVKGKS, the amyloid nucleation score is reported as “inactive”.
For RDYKLVRHHSHKDVLSCILW, the amyloid nucleation score was “inactive”.
In the case of SLPRV, the amyloid nucleation score is reported as “inactive”.
In the case of SIFSLLCVRLRGEVAPSRLM, the amyloid nucleation score is reported as “inactive”.
For HCDCTFYSSLGFIGGTWDSC, the amyloid nucleation score was “inactive”.
For PSLCFSAVQLRLPRDVFLKY, the amyloid nucleation score was “inactive”.
In the case of AHRCFFHLSRHVRKYAIRQR, the amyloid nucleation score is reported as “inactive”.
With QLMPKRAVKRDYRDSSWSGV the amyloid nucleation score was “inactive”.
For WLLFDPVGVVKQSLVARNSY, the amyloid nucleation score was “inactive”.
In the case of PSLLQVHKCLRIRLIWRWLW, the amyloid nucleation score is reported as “inactive”.
With PDINM the amyloid nucleation score was “inactive”.
With DIFTPILMLCWV the amyloid nucleation score was “inactive”.
For AVVIGDDEVVSDYCLLL, the amyloid nucleation score was 0.377 ± 0.27.
For ESMISNGFWGLRARCSVINM, the amyloid nucleation score was “inactive”.
For SRLWYSPGDYQVFKVRLHIW, the amyloid nucleation score was “inactive”.
Work on FVIVGSGSQSPEYIWNVKYE yielded an amyloid nucleation score of -0.049 ± 0.32.
In the case of VMYSGFRVILF, the amyloid nucleation score is reported as 0.751 ± 0.15.
With HWCTSKFIKPNGYPREERRV the amyloid nucleation score was “inactive”.
In the case of ILHKGNS, the amyloid nucleation score is reported as “inactive”.
With ACFLVFGIYQEVMHDCIGRS the amyloid nucleation score was “inactive”.
In the case of KYSTSPNFKIIQVLMGLPLR, the amyloid nucleation score is reported as “inactive”.
For GYLLVVW, the amyloid nucleation score was “inactive”.
Work on SKESISLECIHRVWFCGTGL yielded an amyloid nucleation score of 0.185 ± 0.38.
In the case of CSGYARTLS, the amyloid nucleation score is reported as “inactive”.
For EAPRFCSRAMDYVILQGWTL, the amyloid nucleation score was “inactive”.
In the case of DSDYGNVVWRFYRSYGCTGL, the amyloid nucleation score is reported as “inactive”.
In the case of YVLNKGFWGGNTLQSWRVSD, the amyloid nucleation score is reported as “inactive”.
For QGYMFFCHYIDICS, the amyloid nucleation score was “inactive”.
In the case of LSKHS, the amyloid nucleation score is reported as “inactive”.
With CLVSLVFRFIVY the amyloid nucleation score was “inactive”.
VSWLCSMKDICPHCDEINYR showed an amyloid nucleation score of 1.8 ± 0.062.
In the case of PSTDVILSANWDDRRSGLYG, the amyloid nucleation score is reported as “inactive”.
In the case of NWGVYCVRDLWYRHSDMYHR, the amyloid nucleation score is reported as “inactive”.
In the case of RCFRTLIRENMKLANTSDMT, the amyloid nucleation score is reported as “inactive”.
In the case of ISRLR, the amyloid nucleation score is reported as “inactive”.
For VLVFSLISFLSWDWCSYLV, the amyloid nucleation score was “inactive”.
For FTYWLFSLDR, the amyloid nucleation score was “inactive”.
With RFNMCGEYGKVHGLGW the amyloid nucleation score was “inactive”.
With RVCRVAPLPAVKGLGVSQNS the amyloid nucleation score was “inactive”.
With RLHIVETLSYLNACWPDFSG the amyloid nucleation score was “inactive”.
For AASEPGSKRLEAAQWVPVAS, the amyloid nucleation score was “inactive”.
With SYRHCNWDAKKVAIGTVVWD the amyloid nucleation score was “inactive”.
For YFLYLFRSVQCMLCHALNFN, the amyloid nucleation score was 0.586 ± 0.15.
In the case of CLMKIWLTVEGTSHRALGFR, the amyloid nucleation score is reported as “inactive”.
In the case of FIYSHTVWFRNYLHMYPILF, the amyloid nucleation score is reported as “inactive”.
For YSFAVPSNLLLLK, the amyloid nucleation score was -0.302 ± 0.52.
With YSAVSTSVMCAE the amyloid nucleation score was “inactive”.
With RHGEIYAHYKMFVCRLDEVR the amyloid nucleation score was “inactive”.
For AIISWQTLMWLYL, the amyloid nucleation score was “inactive”.
Work on TCHLILRVFGSYNMHGS yielded an amyloid nucleation score of -0.024 ± 0.96.
In the case of DVGLAVNTSHLWSYT, the amyloid nucleation score is reported as “inactive”.
RQIVKPASQVILCRCLCTGA gave an amyloid nucleation score of 1.04 ± 0.1.
Substance IMCANSEVVKCYCNRTKLEL has an amyloid nucleation score of 1.08 ± 0.14.
With RSCLCEWWDVGSSVSASTLL the amyloid nucleation score was “inactive”.
In the case of CDRLIVHLFSHLDSGSSVVL, the amyloid nucleation score is reported as “inactive”.
In the case of WSTPWMWVRFGRIDHCSLGV, the amyloid nucleation score is reported as “inactive”.
For YGLFGCLTSVWACRGCYGVV, the amyloid nucleation score was “inactive”.
IVSMSCGWFRGYRVDDGYM gave an amyloid nucleation score of 1.38 ± 0.083.
CRLSGEYFIDTDPEVFLALM gave an amyloid nucleation score of 0.397 ± 0.17.
With NDSGAPPLPSGLQPLHH the amyloid nucleation score was “inactive”.
With NMVYLGDLTITMSTFDAFR the amyloid nucleation score was 0.53 ± 0.18.
With CLDARYKMRV the amyloid nucleation score was “inactive”.
With ACGRVNVCYLTPMVRHSGRS the amyloid nucleation score was “inactive”.
In the case of CSTCISTNFSPY, the amyloid nucleation score is reported as “inactive”.
RSVVMYALSIFYVRFTANQN gave an amyloid nucleation score of 0.755 ± 0.23.
For VFYIHIREVTSVVIILVWCS, the amyloid nucleation score was “inactive”.
In the case of FYCRSGVGKCYGWVTKVMRE, the amyloid nucleation score is reported as “inactive”.
With YVRIWSFMNYAVMVSITLIV the amyloid nucleation score was “inactive”.
For NTSYLDASSNGNQRCIHSHK, the amyloid nucleation score was “inactive”.
For LNVLAPFGWLARFIILAIP, the amyloid nucleation score was “inactive”.
Substance YMLMGMVLRDRDRT has an amyloid nucleation score of 1.69 ± 0.088.
In the case of LSWSGNSSAYKSIIR, the amyloid nucleation score is reported as “inactive”.
In the case of SGDLMEGGEYF, the amyloid nucleation score is reported as “inactive”.
For NNVKRSSPDSQVPSQVSMRF, the amyloid nucleation score was “inactive”.
In the case of MTGCHCSSVAR, the amyloid nucleation score is reported as -0.299 ± 0.68.
For IGRNSSKIFLFFCSCMRMFS, the amyloid nucleation score was 2.95 ± 0.077.
For GASCLCWNYRDRLRTEVRYY, the amyloid nucleation score was “inactive”.
In the case of PWHLIIDLQGWIFLVYEIGQ, the amyloid nucleation score is reported as “inactive”.
YYNTYCTVDIYYLNPCVNLQ gave an amyloid nucleation score of 3.01 ± 0.056.
For LNGMFG, the amyloid nucleation score was “inactive”.
IHRYGTRRYETLRGQHAPFP showed an amyloid nucleation score of -0.719 ± 1.4.
For RGTKAYMGVVCSTPTIFCPN, the amyloid nucleation score was “inactive”.
For LFELDKLNRVHLNGVMGVII, the amyloid nucleation score was “inactive”.
In the case of WLFNYRILCLSVMWFTKSIE, the amyloid nucleation score is reported as “inactive”.
FNITGRVSYSIVTLCFMQCK showed an amyloid nucleation score of 2.75 ± 0.069.
In the case of ISMLTVVSN, the amyloid nucleation score is reported as “inactive”.
With CLFWMTWDVSRDS the amyloid nucleation score was “inactive”.
With VLHGVL the amyloid nucleation score was “inactive”.
With SYDMTLHG the amyloid nucleation score was 0.436 ± 0.18.
In the case of YFWEASGFHFIRLVTTASTQ, the amyloid nucleation score is reported as “inactive”.
With ILDMSERFQILNNFR the amyloid nucleation score was “inactive”.
For NFPYLAVFLRGFSFSVIDC, the amyloid nucleation score was “inactive”.
For SYLRQDDVEMAVIWTGHMSV, the amyloid nucleation score was “inactive”.
For SRCPRMGYQHALRRWLLPVW, the amyloid nucleation score was “inactive”.
Work on LVMNNRYLYSRFLLLV yielded an amyloid nucleation score of -0.619 ± 0.73.
VFYIYSRW showed an amyloid nucleation score of 1.69 ± 0.091.
In the case of GMRFRLMEKFHRLFYYSNMT, the amyloid nucleation score is reported as “inactive”.
With LYVWLAWYWVYPINHALVVC the amyloid nucleation score was “inactive”.
KSPVWIQIPLMCFLLEFVLG showed an amyloid nucleation score of 0.471 ± 0.2.
MCRLDA showed an amyloid nucleation score of 2.38 ± 0.073.
With AVIWGEAPRIFLTCGALRRE the amyloid nucleation score was “inactive”.
In the case of SVGVWKYFDLWAAGFLSSSG, the amyloid nucleation score is reported as “inactive”.
In the case of FLMNDSCDRTIWFNVFLSNS, the amyloid nucleation score is reported as 0.7 ± 0.18.
For CNTPR, the amyloid nucleation score was “inactive”.
For VGQWYGFMFWLLLLIIQS, the amyloid nucleation score was “inactive”.
In the case of KYVYYSFLERSFDYMYFSRQ, the amyloid nucleation score is reported as “inactive”.
In the case of SDRSA, the amyloid nucleation score is reported as “inactive”.
For CCMVVTQYYARMMVWGNRPY, the amyloid nucleation score was “inactive”.
With WLNYCNCV the amyloid nucleation score was 1.91 ± 0.078.
YQIDQSLCNWCYLGGSWFIA showed an amyloid nucleation score of 2.39 ± 0.072.
With LNDLCKMPVSLFIHGLCLMT the amyloid nucleation score was “inactive”.
Substance FDGTGRLRF has an amyloid nucleation score of -0.629 ± 1.2.
With SNQLNAN the amyloid nucleation score was “inactive”.
Substance RLCSVGLAVYYMACSEYKMR has an amyloid nucleation score of 0.103 ± 0.29.
For ILSVSLVVHRKRTTWISNYH, the amyloid nucleation score was “inactive”.
In the case of PRQRLMMWSRRG, the amyloid nucleation score is reported as “inactive”.
In the case of QSEICLSWCIQSVGDVVDYR, the amyloid nucleation score is reported as “inactive”.
In the case of RRFIIPRAVAFTSL, the amyloid nucleation score is reported as “inactive”.
For FNSNFHHSVNSVNGITFSEA, the amyloid nucleation score was “inactive”.
With CFNNRARP the amyloid nucleation score was “inactive”.
With KPCSRVSWNVVQVV the amyloid nucleation score was “inactive”.
QNCIHKRRSLGSTCATEWDV showed an amyloid nucleation score of -0.399 ± 1.
With IIYKTVHVYVYCSIVLERDL the amyloid nucleation score was “inactive”.
For WYHGKWYLDLNYVVPVTQWK, the amyloid nucleation score was “inactive”.
In the case of AVTYNGYDHYYRDVARHCLR, the amyloid nucleation score is reported as “inactive”.
In the case of LQHWPRTFWMGSRYAYLFSL, the amyloid nucleation score is reported as “inactive”.
Substance PFPQWEKHYYFFAMNYFHFS has an amyloid nucleation score of 1.75 ± 0.061.
In the case of LMHGPMLVFRFVASNSCRER, the amyloid nucleation score is reported as “inactive”.
YHCVRLFRVPMTISRGDAQK showed an amyloid nucleation score of -0.271 ± 0.59.
With YCHILTLATVMKPTFERAPS the amyloid nucleation score was “inactive”.
With SIRTWRVPRDCSAYFNGLSW the amyloid nucleation score was “inactive”.
For NCLLTFDQNYTRGIPAKI, the amyloid nucleation score was “inactive”.
With QGNRS the amyloid nucleation score was “inactive”.
For RLFKNGSMGRSYGSVYRPV, the amyloid nucleation score was -0.111 ± 0.81.
With RINMELLWIFGGSTWFINRG the amyloid nucleation score was 1.93 ± 0.084.
With NIFSQWYIISCLFRGKLCEH the amyloid nucleation score was 1 ± 0.13.
Work on TRVDLLYRSRNDGIVFFSRF yielded an amyloid nucleation score of 0.773 ± 0.2.
MVRNRNYSLIYGWVPIQDEE showed an amyloid nucleation score of 1.82 ± 0.099.
